Test results as given in paper PMC3766450 (Nature structural & molecular biology, 2013).

molecular target: vertebrate calmodulin (CaM) (UniProt P0DP23); assay: ITC

| Binder | stoichiometry N |
| --- | --- |
| LFPRAKSVSERLSILKGSRP [AQP0^CBD peptide L227A] | 1 peptide per CaM |
| LFPRLKSVSERASILKGSRP [AQP0^CBD peptide L234A] | 2 peptides per CaM |

Continued, values first:

| stoichiometry N | Binder |
| --- | --- |
| 1 peptide per CaM | LFPRLKSASERLSILKGSRP [AQP0^CBD peptide V230A] |
| 2 peptides per CaM | LFPRLKSVSERLSIAKGSRP [AQP0^CBD peptide L237A] |
